The chains are these.
B1: TCEB3B (parent)
chain: STTALGDKQRKANESKGTRESWDS
B2: PTPRD (parent)
chain: ITWFKDFLPVDTSNNNGRIKQLRS
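Note: lentivirally expressed fusions sorted by FACS into six bins by GFP to DsRed ratio, PSI derived from sequencing read proportions per bin multiplied by bin number.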

One series covers variants of B1. The experiment in a line: protein stability index of a GFP-peptide fusion (GPS, HEK-293T) (PSI 1-6); higher = more stable. The conditions noted are these: c terminus: a fixed tail appended.
Take STTQLGDKQRKANESKGTRESWDS: the protein stability index amounted to 3.9. Consider STTWLGDKQRKANESKGTRESWDS, for which the protein stability index was 3.62.

Take STTVLGDKQRKANESKGTRESWDS: the protein stability index turned out to be 3.96. Take STTDLGDKQRKANESKGTRESWDS: the protein stability index turned out to be 4.14. Still for that read-out and setting: to STTTLGDKQRKANESKGTRESWDS belongs 4.46.

On to STTCLGDKQRKANESKGTRESWDS, for which the protein stability index came to 3.86. Turning to STTRLGDKQRKANESKGTRESWDS, the protein stability index was found to be 3.34. In the case of STTAEGDKQRKANESKGTRESWDS, the protein stability index was 4.57.

Take STTAWGDKQRKANESKGTRESWDS: the protein stability index worked out at 3.64.

STTAHGDKQRKANESKGTRESWDS: the protein stability index was determined as 4.25. Consider STTASGDKQRKANESKGTRESWDS, for which the protein stability index came to 4.25. As for STTAIGDKQRKANESKGTRESWDS, the protein stability index was determined as 3.17.

In the case of STTALGDKQRKANESKSTRESWDS, the protein stability index worked out at 3.71.

Regarding STTALGDKQRKANESKTTRESWDS, the protein stability index amounted to 3.98. The same measure, in the same setting: as for STTALGDKQRKANESKNTRESWDS, the figure is 3.74.

For STTALGDKQRKANESKGTRESNDS, the protein stability index was 5.83. For the variant STTALGDKQRKANESKGTRESKDS, the protein stability index came to 5.7. For the variant STTALGDKKRKANESKGTRESWDS, the protein stability index was 4.09.

For STTALGDKFRKANESKGTRESWDS, the protein stability index is 3.29. For the variant STTALGDKRRKANESKGTRESWDS, the protein stability index stood at 3.52. For the variant STTALGDKQRKAVESKGTRESWDS, the protein stability index was 4.12.

As for STTALGDKQRKAKESKGTRESWDS, the protein stability index worked out at 3.65.

Take STTALGDKQRKAAESKGTRESWDS: the protein stability index was 3.91. The same measure, in the same setting: as for STTALGDKQRKAGESKGTRESWDS, the figure is 3.45; as for STTALGDKQRKAPESKGTRESWDS, 3.83.

For STTALNDKQRKANESKGTRESWDS, the protein stability index turned out to be 4.38. The same measure, in the same setting: to STTALPDKQRKANESKGTRESWDS belongs 4.34. Still for that read-out and setting: to STTALWDKQRKANESKGTRESWDS belongs 3.29; to STTALGDKQRKANNSKGTRESWDS, 4.06. As to STTALGDKQRKANTSKGTRESWDS, the protein stability index is 3.42. Turning to STTALGDKQRKANYSKGTRESWDS, the protein stability index was found to be 2.95.

Consider STTALGDKQRKANRSKGTRESWDS, for which the protein stability index came out at 3.61.

In the case of STTALGDKQRKANWSKGTRESWDS, the protein stability index worked out at 2.73. As to STTALGDKQRKANKSKGTRESWDS, the protein stability index worked out at 3.33. On the same count and under the same terms, as for STTALGDKQRKANDSKGTRESWDS, the figure is 3.89; as for ITTALGDKQRKANESKGTRESWDS, 3.58. WTTALGDKQRKANESKGTRESWDS: the protein stability index turned out to be 2.74. Consider MTTALGDKQRKANESKGTRESWDS, for which the protein stability index was 4.22.

STTALGDKQRKANESKGTRESWDA: the protein stability index was 4.38. As to STTALGDKQRIANESKGTRESWDS, the protein stability index was 4.02. Take STTALGDKQRDANESKGTRESWDS: the protein stability index came to 4.32. As to STTALGDKQRAANESKGTRESWDS, the protein stability index is 4.3. The same measure, in the same setting: to STTALGDKQRLANESKGTRESWDS belongs 3.65; to STTALGDKQRHANESKGTRESWDS, 4.29; to STTALGDKQREANESKGTRESWDS, 4.72. Turning to STTALGDKQRKANESKGTKESWDS, the protein stability index is 4.21. Consider STTALGDKQRKANESKGTLESWDS, for which the protein stability index amounted to 4.5. Take STTALGDKQRKANESKGTSESWDS: the protein stability index was 4.94. As to STTALGDKQRKANESKGTDESWDS, the protein stability index was determined as 5.16. With STTALGDKQRKANEGKGTRESWDS, the protein stability index turned out to be 4.2. Still for that read-out and setting: to STTALGDKQRKANEYKGTRESWDS belongs 3.64; to STTALGDKQRKANERKGTRESWDS, 3.65. Take STTALGDKQRKANEHKGTRESWDS: the protein stability index turned out to be 3.93.

As for STTALGDKQRKANEPKGTRESWDS, the protein stability index was determined as 4.34.

For the variant STTALGDKQIKANESKGTRESWDS, the protein stability index is 3.6. STTALGDKQPKANESKGTRESWDS: the protein stability index came to 4.43.

Regarding STTALGDKQWKANESKGTRESWDS, the protein stability index is 3.46. As for STTALGDKQRKANESKGTRHSWDS, the protein stability index worked out at 4.89. Turning to STTALGDKQRKANESKGTRISWDS, the protein stability index was 4.

With STTALGDKQRKANESKGTREVWDS, the protein stability index was 4.84. Still for that read-out and setting: to STTALGDKQRKANESKGTRELWDS belongs 4.99; to STTALGWKQRKANESKGTRESWDS, 3.39.

For STTALGPKQRKANESKGTRESWDS, the protein stability index was 3.5. As for STTALGGKQRKANESKGTRESWDS, the protein stability index turned out to be 3.83.

Take STTALGRKQRKANESKGTRESWDS: the protein stability index was found to be 3.88. Still for that read-out and setting: to STTALGEKQRKANESKGTRESWDS belongs 4.36; to SPTALGDKQRKANESKGTRESWDS, 3.94; to SVTALGDKQRKANESKGTRESWDS, 3.67. On to SNTALGDKQRKANESKGTRESWDS, for which the protein stability index is 4.25. As to STTALGDKQRKANESKGTRESWYS, the protein stability index was determined as 4.07.

Take STTALGDKQRKANESKGTRESWFS: the protein stability index stood at 3.93. Take STTALGDKQRKANESKGTRESWLS: the protein stability index was found to be 1.98. Turning to STTALGDKQRKANESKGTRESWES, the protein stability index was found to be 1.82. On to STTALGDKQRKANESKGTRESWGS, for which the protein stability index was determined as 2.83. Take STFALGDKQRKANESKGTRESWDS: the protein stability index was determined as 3.32.

Consider STNALGDKQRKANESKGTRESWDS, for which the protein stability index was 3.77.

In the case of STSALGDKQRKANESKGTRESWDS, the protein stability index came to 3.57. As to STTALGDKQRKANESYGTRESWDS, the protein stability index came to 3.6.

Take STTALGDKQRKANESIGTRESWDS: the protein stability index was 3.95.

Consider STTALGDKQRKANESRGTRESWDS, for which the protein stability index is 4.04. STTALGDKQRKENESKGTRESWDS: the protein stability index worked out at 4.49. Regarding STTALGDKQRKRNESKGTRESWDS, the protein stability index was 3.56. In the case of STTALGDKQRKQNESKGTRESWDS, the protein stability index worked out at 3.92.

As for STTALGDKQRKVNESKGTRESWDS, the protein stability index is 3.88. Consider STTALGDKQRKANESKGERESWDS, for which the protein stability index was 4.17. As to STTALGDKQRKANESKGNRESWDS, the protein stability index was 4.09. As to STTALGDKQRKANESKGRRESWDS, the protein stability index came to 3.76. Still for that read-out and setting: to STTALGDKQRKANESKGWRESWDS belongs 3. On to STTALGDKQRKANESKGGRESWDS, for which the protein stability index was 3.81. As for STTALGDRQRKANESKGTRESWDS, the protein stability index was determined as 4.08. Consider STTALGDSQRKANESKGTRESWDS, for which the protein stability index amounted to 4.31. Turning to STTALGDYQRKANESKGTRESWDS, the protein stability index was 3.11. For STTALGDDQRKANESKGTRESWDS, the protein stability index worked out at 4.59.

In another series the parent is B2. The description is as above. The conditions noted are these: c terminus: a fixed tail appended.
Regarding ITWFKDFLPVDTSNNNGRIKQLRI, the protein stability index is 1.97.
